Measured values: patent publication US20250270313A1

Target: human Claudin 18.2 (hClaudin18.2) (human) (UniProt P56856)
Experiment: flow cytometry on CHO cells overexpressing claudin18.2

EC50: 2 µg/mL
Substance: IMAB362-FC (Fc fusion)
